This is an account of results in patent US20240165153A1.

Experiment [1] concerns the target CD20 (UniProt P11836). Kind of experiment: cell-based or functional assay.
In experiment [2] the target is CD19 (UniProt P15391). The experiment is described as follows: cell-based or functional assay.
Chain of UniProt P15391 (P15391 20-556 limits assumed): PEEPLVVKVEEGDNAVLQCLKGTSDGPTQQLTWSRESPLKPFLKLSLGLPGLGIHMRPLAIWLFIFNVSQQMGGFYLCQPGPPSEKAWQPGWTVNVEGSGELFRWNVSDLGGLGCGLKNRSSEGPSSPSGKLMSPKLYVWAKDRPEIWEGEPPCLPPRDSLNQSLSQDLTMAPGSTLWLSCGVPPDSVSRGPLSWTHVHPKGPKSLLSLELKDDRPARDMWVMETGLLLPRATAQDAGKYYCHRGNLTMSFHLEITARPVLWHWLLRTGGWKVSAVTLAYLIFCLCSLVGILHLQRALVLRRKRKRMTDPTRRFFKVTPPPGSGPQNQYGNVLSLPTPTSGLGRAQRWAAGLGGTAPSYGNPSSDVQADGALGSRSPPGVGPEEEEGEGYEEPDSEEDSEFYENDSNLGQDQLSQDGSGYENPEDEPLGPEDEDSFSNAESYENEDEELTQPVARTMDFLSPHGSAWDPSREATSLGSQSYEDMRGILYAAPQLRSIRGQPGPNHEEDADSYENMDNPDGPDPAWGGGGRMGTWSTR

Chain of UniProt P11836 (P11836 whole entry): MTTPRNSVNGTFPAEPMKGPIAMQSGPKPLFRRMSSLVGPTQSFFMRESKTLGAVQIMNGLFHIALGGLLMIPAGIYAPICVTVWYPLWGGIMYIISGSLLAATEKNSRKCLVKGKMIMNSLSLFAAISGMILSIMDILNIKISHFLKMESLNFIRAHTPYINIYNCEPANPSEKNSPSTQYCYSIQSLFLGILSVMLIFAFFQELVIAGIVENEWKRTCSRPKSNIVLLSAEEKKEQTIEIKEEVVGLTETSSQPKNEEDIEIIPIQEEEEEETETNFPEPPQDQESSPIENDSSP

In experiment [1], “10-5-2020 Hu19-CD828Z (anti-CD19 chimeric antigen receptor)” returned an IFNγ release; T cells transduced with monospecific 10-5-2020 Hu19-CD828Z, with CD19-negative CD20-K562 (untransduced T cells: 201.3) of 291; an IFNγ release; T cells transduced with monospecific 10-5-2020 Hu19-CD828Z, with ST486 CD19-negative (untransduced T cells: 1464.3) of 1360; an IFNγ release; T cells transduced with monospecific 10-5-2020 Hu19-CD828Z, with Toledo CD19-negative (untransduced T cells: 372.7) of 702. For the same substance, in experiment [2], the CFSE median fluorescence intensity (lower = more proliferation), FIG. 9B, CD4+ T cells with Hu1928-Hu20BB long 10-21-2020, 4 days with CD19-K562 (NGFR-K562 control 28478) (relative fluorescence units) was found to be 1410; the CFSE median fluorescence intensity (lower = more proliferation), FIG. 10B, CD8+ T cells with Hu1928-Hu20BB long 10-21-2020, 4 days with CD19-K562 (NGFR-K562 control 24978) (relative fluorescence units) was 1770; the IFNγ ELISA of supernatant; T cells transduced with Hu1928-Hu20BB long 10-21-2020, overnight with CD19-K562 was 8210 pg/mL; the IFNγ release; T cells transduced with Hu1928-Hu20BB long 10-21-2020, with CD19-K562 turned out to be 37500. Moreover, in experiment [2], the IFNγ release; T cells transduced with monospecific 10-5-2020 Hu19-CD828Z, with CD19-K562 (untransduced T cells: 217.2) was 22000; the IFNγ release; T cells transduced with monospecific 10-5-2020 Hu19-CD828Z, with ST486, which expresses CD19 (weakly) and CD20 (untransduced T cells: 1674.8) was 2070; the IFNγ release; T cells transduced with monospecific 10-5-2020 Hu19-CD828Z, with Toledo, which expresses CD19 and CD20 (untransduced T cells: 542.3) came out at 3200; the IL-2 ELISA of supernatant; T cells transduced with Hu1928-Hu20BB long 10-21-2020, overnight with CD19-K562 was 496 pg/mL.
